{"source": "patent US9549967B2", "about": "“Regulation of sodium channels by PLUNC proteins” (The University of North Carolina at Chapel Hill, priority 2009, dated 2017)", "assay_type_in_all_cases": "cell-based", "key": {"[1]": {"biological_target": "T1, CFTR (Homo sapiens, UniProt P13569)", "T1 construct": "expressed in transfected cells; host or cells: Xenopus laevis oocytes", "T1 sequence (P13569 whole entry, species assumed)": "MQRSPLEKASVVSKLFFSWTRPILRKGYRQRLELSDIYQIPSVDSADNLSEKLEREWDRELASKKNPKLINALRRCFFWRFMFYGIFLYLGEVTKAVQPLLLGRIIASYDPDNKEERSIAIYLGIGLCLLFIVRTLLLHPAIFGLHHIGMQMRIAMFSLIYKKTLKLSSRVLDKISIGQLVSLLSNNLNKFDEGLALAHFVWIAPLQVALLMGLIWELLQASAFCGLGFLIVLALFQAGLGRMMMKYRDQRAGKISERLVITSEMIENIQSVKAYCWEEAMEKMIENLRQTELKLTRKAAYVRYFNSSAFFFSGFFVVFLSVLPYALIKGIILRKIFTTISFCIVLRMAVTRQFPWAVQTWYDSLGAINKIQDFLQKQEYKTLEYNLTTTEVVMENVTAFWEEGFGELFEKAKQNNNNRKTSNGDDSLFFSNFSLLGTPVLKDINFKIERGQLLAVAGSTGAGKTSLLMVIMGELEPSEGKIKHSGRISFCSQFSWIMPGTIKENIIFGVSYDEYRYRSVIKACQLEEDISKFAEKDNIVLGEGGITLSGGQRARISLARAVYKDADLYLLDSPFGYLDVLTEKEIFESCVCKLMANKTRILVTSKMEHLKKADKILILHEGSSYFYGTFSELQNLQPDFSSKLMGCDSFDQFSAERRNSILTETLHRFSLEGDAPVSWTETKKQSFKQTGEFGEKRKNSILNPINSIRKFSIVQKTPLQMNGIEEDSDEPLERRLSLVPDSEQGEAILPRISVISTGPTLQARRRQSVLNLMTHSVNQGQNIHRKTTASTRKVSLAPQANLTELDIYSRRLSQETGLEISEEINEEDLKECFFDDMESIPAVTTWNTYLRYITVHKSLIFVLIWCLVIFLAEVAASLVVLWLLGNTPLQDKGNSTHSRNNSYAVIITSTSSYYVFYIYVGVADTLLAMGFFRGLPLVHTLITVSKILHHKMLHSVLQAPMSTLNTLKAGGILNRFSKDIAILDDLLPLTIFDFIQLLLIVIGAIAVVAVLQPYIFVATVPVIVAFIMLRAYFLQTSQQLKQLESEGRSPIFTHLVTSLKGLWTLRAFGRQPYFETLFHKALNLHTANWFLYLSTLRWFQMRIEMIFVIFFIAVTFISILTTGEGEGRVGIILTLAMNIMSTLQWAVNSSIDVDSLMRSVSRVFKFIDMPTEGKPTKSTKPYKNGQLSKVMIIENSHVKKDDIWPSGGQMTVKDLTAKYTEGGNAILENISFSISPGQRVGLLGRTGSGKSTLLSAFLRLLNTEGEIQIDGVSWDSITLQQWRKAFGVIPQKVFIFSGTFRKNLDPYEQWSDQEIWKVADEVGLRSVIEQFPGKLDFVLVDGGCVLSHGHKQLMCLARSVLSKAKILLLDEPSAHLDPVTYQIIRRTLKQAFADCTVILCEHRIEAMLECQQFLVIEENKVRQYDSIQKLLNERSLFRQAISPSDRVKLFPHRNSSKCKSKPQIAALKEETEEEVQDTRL", "experiment": "CFTR activity in Xenopus oocytes co-expressing CFTR and β2 adrenergic receptor", "conditions": "10 μM isoproterenol, β2AR co-expressed", "description": "(§1) Oocyte studies. Xenopus laevis oocytes were harvested and injected as described (Donaldson, et al., J. Biol. Chem. 277:8338 (2002)). Defolliculated healthy stage V-VI oocytes were injected with 0.3 ng of cRNA of each ENaC subunit. Injected oocytes were kept in modified Barth's saline (in mM: 88 NaCl, 1 KCl, 2.4 NaHCO3, 0.3 Ca(NO3)2, 0.41 CaCl2, 0.82 MgSO4, and 15 HEPES, adjusted to pH 7.35 with Tris). Oocytes were studied 24 hr after injection using the two electrode voltage clamp technique as previously described (Donaldson, et al., J. Biol. Chem. 277:8338 (2002)). Oocytes were clamped at a holding potential of […]. The change in amiloride-sensitive whole cell current as an indicator of ENaC activity was determined by subtracting the corresponding current value measured in the presence of 10 μM amiloride from that measured before the application of amiloride.\nIn both cases, we co-expressed CFTR with the β2 adrenergic receptor (β2AR) which can be stimulated with isoproterenol to raise cAMP and stimulate CFTR (Uezono et al., Receptors Channels 1:233 (1993))."}, "[2]": {"biological_target": "T2, αβγENaC (Rattus norvegicus, UniProt P37089+P37090+P37091)", "T2 construct": "expressed in transfected cells; host or cells: Xenopus laevis oocytes (cRNA injection)", "T2 sequence (P37089 1-698)": "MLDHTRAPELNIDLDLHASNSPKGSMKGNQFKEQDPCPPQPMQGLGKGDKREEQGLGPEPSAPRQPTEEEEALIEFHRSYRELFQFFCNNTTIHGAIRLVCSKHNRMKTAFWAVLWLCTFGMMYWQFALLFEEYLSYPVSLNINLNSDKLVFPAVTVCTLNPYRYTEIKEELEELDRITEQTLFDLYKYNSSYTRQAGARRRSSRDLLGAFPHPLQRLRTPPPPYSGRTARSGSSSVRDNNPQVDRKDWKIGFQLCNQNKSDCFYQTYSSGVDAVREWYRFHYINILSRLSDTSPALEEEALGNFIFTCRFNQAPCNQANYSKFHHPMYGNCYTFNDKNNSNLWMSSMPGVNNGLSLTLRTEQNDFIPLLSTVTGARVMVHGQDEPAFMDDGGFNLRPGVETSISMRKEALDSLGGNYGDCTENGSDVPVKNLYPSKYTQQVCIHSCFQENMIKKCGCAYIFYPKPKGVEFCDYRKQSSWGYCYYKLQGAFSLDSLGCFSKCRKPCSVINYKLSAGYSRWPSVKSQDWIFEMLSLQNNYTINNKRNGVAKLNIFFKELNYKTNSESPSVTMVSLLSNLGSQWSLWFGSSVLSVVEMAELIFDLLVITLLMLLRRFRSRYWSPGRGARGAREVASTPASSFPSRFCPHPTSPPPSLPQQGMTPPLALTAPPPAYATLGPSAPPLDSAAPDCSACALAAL", "T2 sequence (P37090 1-638)": "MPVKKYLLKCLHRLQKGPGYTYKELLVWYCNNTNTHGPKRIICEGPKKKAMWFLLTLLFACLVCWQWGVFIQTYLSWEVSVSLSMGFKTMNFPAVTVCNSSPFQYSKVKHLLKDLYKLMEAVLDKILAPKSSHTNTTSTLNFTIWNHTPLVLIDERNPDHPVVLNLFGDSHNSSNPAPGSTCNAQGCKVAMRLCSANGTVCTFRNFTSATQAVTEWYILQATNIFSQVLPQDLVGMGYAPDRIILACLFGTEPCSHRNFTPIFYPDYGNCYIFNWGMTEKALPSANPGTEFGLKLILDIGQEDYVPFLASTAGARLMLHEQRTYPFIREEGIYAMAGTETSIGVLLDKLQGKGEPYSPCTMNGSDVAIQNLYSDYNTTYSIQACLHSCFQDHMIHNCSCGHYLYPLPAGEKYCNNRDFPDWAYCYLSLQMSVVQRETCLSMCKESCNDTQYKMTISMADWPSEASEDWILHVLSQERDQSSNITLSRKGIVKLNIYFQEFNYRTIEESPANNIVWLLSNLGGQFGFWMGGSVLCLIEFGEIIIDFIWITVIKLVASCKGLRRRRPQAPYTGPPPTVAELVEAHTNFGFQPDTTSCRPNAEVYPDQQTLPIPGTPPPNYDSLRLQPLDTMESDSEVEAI", "T2 sequence (P37091 1-650)": "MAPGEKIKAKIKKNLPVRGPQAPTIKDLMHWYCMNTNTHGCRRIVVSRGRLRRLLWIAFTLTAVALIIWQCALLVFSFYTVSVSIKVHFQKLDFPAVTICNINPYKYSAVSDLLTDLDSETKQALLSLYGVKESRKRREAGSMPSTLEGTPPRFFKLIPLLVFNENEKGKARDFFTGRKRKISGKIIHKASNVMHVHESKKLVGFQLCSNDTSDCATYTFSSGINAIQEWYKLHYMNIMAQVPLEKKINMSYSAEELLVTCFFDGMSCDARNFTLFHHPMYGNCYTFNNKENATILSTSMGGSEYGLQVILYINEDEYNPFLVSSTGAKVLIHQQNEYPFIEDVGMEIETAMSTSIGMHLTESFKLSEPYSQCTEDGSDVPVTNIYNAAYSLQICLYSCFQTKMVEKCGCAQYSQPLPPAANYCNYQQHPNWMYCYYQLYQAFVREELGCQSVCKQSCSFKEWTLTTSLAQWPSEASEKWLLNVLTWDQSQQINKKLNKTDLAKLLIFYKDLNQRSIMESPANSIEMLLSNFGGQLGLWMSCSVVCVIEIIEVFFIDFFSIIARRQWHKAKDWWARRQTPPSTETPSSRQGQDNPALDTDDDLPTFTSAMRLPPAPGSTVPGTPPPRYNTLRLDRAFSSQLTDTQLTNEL", "experiment": "Amiloride-sensitive whole cell current in Xenopus laevis oocytes expressing ENaC (two electrode voltage clamp)", "conditions": "co-expression with α,β,γ ENaC in oocytes, FIG. 13", "description": "as §1"}, "[3]": {"biological_target": "T3, ENaC (Homo sapiens, UniProt P37088+P51168+P51170)", "T3 construct": "endogenous in cells; host or cells: primary human bronchial epithelial cultures", "T3 sequence (P37088 1-669)": "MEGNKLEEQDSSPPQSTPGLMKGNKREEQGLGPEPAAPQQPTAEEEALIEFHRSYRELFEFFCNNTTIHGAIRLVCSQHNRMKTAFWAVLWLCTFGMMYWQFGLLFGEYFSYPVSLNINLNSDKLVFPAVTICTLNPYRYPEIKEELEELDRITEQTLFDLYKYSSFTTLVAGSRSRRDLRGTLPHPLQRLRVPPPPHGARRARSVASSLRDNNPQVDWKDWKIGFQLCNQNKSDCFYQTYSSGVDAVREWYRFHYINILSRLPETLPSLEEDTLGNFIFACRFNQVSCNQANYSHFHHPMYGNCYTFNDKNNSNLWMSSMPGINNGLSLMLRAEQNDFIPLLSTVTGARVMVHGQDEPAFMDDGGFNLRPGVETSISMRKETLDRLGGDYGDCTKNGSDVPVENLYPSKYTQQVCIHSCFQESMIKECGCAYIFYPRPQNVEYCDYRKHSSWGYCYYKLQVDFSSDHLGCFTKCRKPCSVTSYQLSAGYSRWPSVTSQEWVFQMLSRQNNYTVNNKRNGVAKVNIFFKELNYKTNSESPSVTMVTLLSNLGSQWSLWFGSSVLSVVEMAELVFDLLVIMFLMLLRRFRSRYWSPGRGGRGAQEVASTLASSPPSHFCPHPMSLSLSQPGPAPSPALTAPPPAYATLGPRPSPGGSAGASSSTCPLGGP", "T3 sequence (P51168 1-640)": "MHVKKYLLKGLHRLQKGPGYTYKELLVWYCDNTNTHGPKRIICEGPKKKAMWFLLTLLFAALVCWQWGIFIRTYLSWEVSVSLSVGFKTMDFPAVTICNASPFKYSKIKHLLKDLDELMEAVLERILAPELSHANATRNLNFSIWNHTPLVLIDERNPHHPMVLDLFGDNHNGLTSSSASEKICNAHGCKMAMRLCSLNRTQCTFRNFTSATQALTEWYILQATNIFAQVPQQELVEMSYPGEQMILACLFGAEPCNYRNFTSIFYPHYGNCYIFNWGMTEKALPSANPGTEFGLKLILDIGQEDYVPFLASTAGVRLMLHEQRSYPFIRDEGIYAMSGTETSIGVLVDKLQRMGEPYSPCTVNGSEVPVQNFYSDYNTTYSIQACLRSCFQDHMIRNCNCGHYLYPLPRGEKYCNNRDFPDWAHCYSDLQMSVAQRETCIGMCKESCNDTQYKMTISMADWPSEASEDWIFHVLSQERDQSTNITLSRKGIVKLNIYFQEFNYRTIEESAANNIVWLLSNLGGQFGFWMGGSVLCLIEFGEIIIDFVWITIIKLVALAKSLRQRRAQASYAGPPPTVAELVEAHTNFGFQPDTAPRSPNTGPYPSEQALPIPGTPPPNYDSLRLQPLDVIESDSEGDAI", "T3 sequence (P51170 1-649)": "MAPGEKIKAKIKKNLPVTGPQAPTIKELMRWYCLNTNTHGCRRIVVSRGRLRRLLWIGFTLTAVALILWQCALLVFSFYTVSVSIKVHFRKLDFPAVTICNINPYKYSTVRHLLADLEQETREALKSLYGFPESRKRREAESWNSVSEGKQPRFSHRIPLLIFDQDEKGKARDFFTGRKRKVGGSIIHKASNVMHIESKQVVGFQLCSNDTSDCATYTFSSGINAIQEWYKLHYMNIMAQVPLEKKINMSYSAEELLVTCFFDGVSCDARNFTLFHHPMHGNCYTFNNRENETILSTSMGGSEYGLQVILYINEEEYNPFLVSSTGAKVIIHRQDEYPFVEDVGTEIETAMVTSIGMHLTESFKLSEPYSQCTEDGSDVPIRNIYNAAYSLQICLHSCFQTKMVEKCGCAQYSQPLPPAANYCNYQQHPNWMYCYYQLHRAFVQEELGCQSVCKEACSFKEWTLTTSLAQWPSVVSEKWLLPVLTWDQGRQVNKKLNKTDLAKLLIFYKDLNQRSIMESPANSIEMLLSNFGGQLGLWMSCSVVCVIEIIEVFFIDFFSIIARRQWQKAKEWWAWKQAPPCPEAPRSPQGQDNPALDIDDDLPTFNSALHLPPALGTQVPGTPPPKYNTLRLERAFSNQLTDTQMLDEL", "experiment": "Transepithelial voltage under thin film conditions in human bronchial epithelial cultures (microelectrode)", "conditions": "prewashed cultures, PD remeasured 45 min later; DTT-reduced vs 50 ng/ml recombinant SPLUNC1", "source_text": "Tissue procurement and cell culture: Cells were harvested by enzymatic digestion from human bronchial tissue as previously described under a protocol approved by the UNC School of Medicine IRB (Tarran et al., J. Gen. Physiol. 127:591 (2006)). Human excess donor lungs and excised recipient lungs were obtained at the time of lung transplantation from portions of main stem or […] bronchi and cells were harvested by enzymatic digestion. All preparations were maintained at an air-liquid interface in a modified bronchial epithelial medium and used 2-5 weeks after seeding on 12 mm T-Clear inserts (Corning Costar) coated with human placental type VI collagen (Sigma). Phosphate buffered saline (PBS) was used for washing human bronchial epithelial culture mucosal surfaces.\nMicroelectrode studies. A single-barreled potential difference-sensing electrode was placed in the airway surface liquid by micromanipulator and used in conjunction with a macroelectrode in the serosal solution to measure transepithelial voltage using a voltmeter (World Precision Instruments). […] Transepithelial resistance was routinely measured using the EVOM system (WPI) as previously described (Tarran et al., J. Gen. Physiol. 127:591 (2006))."}}, "note": "Entries after “also recorded” stand apart in the source; their conditions may differ.", "data": [{"molecule": "CC(C)NCC(O)c1ccc(O)c(O)c1", "note": "(stereo not shown) [isoproterenol, reference compound]", "values": [{"measurement": "CFTR activation", "setting": "[1]", "result": "robustly activated"}]}, {"molecule": "LPLUNC1: long PLUNC family member co-expressed in oocytes (protein) TLSPTAVLILGPKVIKEKLTQELKDHNATSILQQLPLLSAMREKPAGGIPVLGSLVNTVLKHIIWLKVITANILQLQVKPSANDQELLVKIPLDMVAGFNTPLVKTIVEFHMTTEAQATIRMDTSASGPTRLVLSDCATSHGSLRIQLLHKLSFLVNALAKQVMNLLVPSLPNLVKNQLCPVIEASFNGMYADLLQLVKVPISLSIDRLEFDLLYPAIKGDTIQLYLGAKLLDSQGKVTKWFNNSAASLTMPTLDNIPFSLIVSQDVVKAAVAAVLSPEEFMVLLDSVLPESAHRLKSSIGLINEKAADKLGSTQIVKILTQDTPEFFIDQGHAKVAQLIVLEVFPSSEALRPLFTLGIEASSEAQFYTKGDQLILNLNNISSDRIQLMNSGIGWFQPDVLKNIITEIIHSILLPNQNGKLRSGVPVSLVKALGFEAAESSLTKDALVLTPASLWKPSSPVSQ", "values": [{"measurement": "reduction of amiloride-sensitive ENaC current relative to CTRL (significance)", "setting": "[2]", "result": "no significant ENaC current reduction"}]}, {"molecule": "recombinant SPLUNC1 that had been reduced with DTT: recombinant SPLUNC1 reduced with DTT (protein, UniProt Q9NP55 20-256, looked up, DTT-reduced) BPI fold-containing family A …: QFGGLPVPLDQTLPLNVNPALPLSPTGLAGSLTNALSNGLLSGGLLGILENLPLLDILKPGGGTSGGLLGGLLGKVTSVIPGLNNIIDIKVTDPQLLELGLVQSPDGHRLYVTIPLGIKLQVNTPLVGASLLRLAVKLDITAEILAVRDKQERIHLVLGDCTHSPGSLQISLLDGLGPLPIQGLLDSLTGILNKVLPELVQGNVCPLVNEVLRGLDITLVHDIVNMLIHGLQFVIKV", "values": [{"measurement": "inhibition of the transepithelial PD (SPLUNC1 activity)", "setting": "[3]", "result": "abolished; also recorded: attenuated"}]}, {"molecule": "SPLUNC2: human SPLUNC2 protein (SEQ ID NO:2), co-expressed in oocytes (protein, listed as Homo sapiens) MLQLWKLVLLCGVLTGTSESLLDNLGNDLSNVVDKLEPVLHEGLETVDNTLKGILEKLKVDLGVLQKSSAWQLAKQKAQEAEKLLNNVISKLLPTNTDIFGLKISNSLILDVKAEPIDDGKGLNLSFPVTANVTVAGPIIGQIINLKASLDLLTAVTIETDPQTHQPVAVLGECASDPTSISLSLLDKHSQIINKFVNSVINTLKSTVSSLLQKEICPLIRIFIHSLDVNVIQQVVDNPQHKTQLQTLI", "values": [{"measurement": "reduction of amiloride-sensitive ENaC current relative to CTRL (significance)", "setting": "[2]", "result": "borderline significance"}]}]}
